Laboratory results reported in the Human Domainome abundance scans (Beltran et al. 2025).
± gives the uncertainty stated by the source.

B1: Histone-lysine N-methyltransferase 2A, residues 1148 to 1194; numbered along this chain, Q03164 (parent)
chain: KGRRSRRCGQCPGCQVPEDCGVCTNCLDKPKFGGRNIKKQCCKMRKC

Variants of: B1
Assay: abundance fitness (aPCA) (normalised: wild type 0, dead -1); higher = more abundant; growth selection in yeast, the domain comes from the species named
Settings: Homo sapiens

Abundance fitness of substitutions, site by site:
C41: T -0.195 ± 0.12, A -0.104 ± 0.095, F -0.095 ± 0.12, I 0.048 ± 0.16, V 0.094 ± 0.089, K -0.123 ± 0.12, G 0.04 ± 0.082, S -0.066 ± 0.09, R -0.014 ± 0.083
G34: R -0.52 ± 0.082, A -0.463 ± 0.089, H -1.07 ± 0.25, K -0.478 ± 0.15, P -0.448 ± 0.11, D -0.236 ± 0.1, T -0.316 ± 0.1, E -0.133 ± 0.098, S -0.288 ± 0.088, C -0.32 ± 0.11
R7: W -0.204 ± 0.11, N -0.041 ± 0.16, L -0.092 ± 0.094, D 0.159 ± 0.16, T -0.153 ± 0.13, Q -0.188 ± 0.14, C -0.493 ± 0.14, K -0.103 ± 0.12
C23: G -0.648 ± 0.088, Q -0.623 ± 0.16, I -0.505 ± 0.2, V -0.814 ± 0.094, R -0.884 ± 0.097
E18: Y -0.264 ± 0.15, A -0.089 ± 0.1, C -0.485 ± 0.14, H -0.17 ± 0.15, I -0.364 ± 0.14, L -0.213 ± 0.086, S -0.092 ± 0.09, R -0.049 ± 0.097
P30: V -0.594 ± 0.096, F -0.705 ± 0.27, S -0.303 ± 0.1, D -0.77 ± 0.2, A -0.187 ± 0.099, R -0.432 ± 0.091, Y -0.712 ± 0.21
S5: G -0.169 ± 0.084, E -0.091 ± 0.14, Y -0.459 ± 0.23, Q 0.07 ± 0.21, P -0.137 ± 0.14, D -0.037 ± 0.14, L -0.132 ± 0.1, A -0.19 ± 0.11
R6: N 0.158 ± 0.12, Y -0.207 ± 0.14, L -0.014 ± 0.093, I 0.019 ± 0.12, F 0.1 ± 0.12, P 0.054 ± 0.095, S 0.06 ± 0.086, E 0.138 ± 0.15, D 0.143 ± 0.11, C -0.407 ± 0.12, T -0.179 ± 0.11
C11: A -0.696 ± 0.11, G -0.643 ± 0.099, R -0.81 ± 0.096, P -0.693 ± 0.17
D28: Y -0.657 ± 0.22, Q -0.509 ± 0.22, E -0.502 ± 0.12, G -0.461 ± 0.088, W -1.05 ± 0.17, H -1 ± 0.29, T -1.09 ± 0.36, K -0.752 ± 0.25
T24: E 0.038 ± 0.12, N -0.521 ± 0.19, H -0.069 ± 0.13, R -0.611 ± 0.095, C -0.441 ± 0.12, K -0.297 ± 0.16, W -0.392 ± 0.11, Q -0.067 ± 0.12
V22: K -0.079 ± 0.14, D -0.322 ± 0.14, L -0.166 ± 0.081, W -0.246 ± 0.12, Q 0.079 ± 0.15, S 0.061 ± 0.079, H -0.046 ± 0.13, Y -0.053 ± 0.1, M -0.385 ± 0.11, F -0.009 ± 0.11, E -0.158 ± 0.14
G21: Y -0.769 ± 0.19, N -0.767 ± 0.27, M -0.278 ± 0.13, F -0.684 ± 0.2, P -0.857 ± 0.14, W -0.88 ± 0.15, V -0.7 ± 0.1, E -0.677 ± 0.16
V16: T 0.173 ± 0.11, R 0.196 ± 0.08, Q 0.223 ± 0.1, D -0.783 ± 0.17, I -0.066 ± 0.14, H -0.3 ± 0.15, G -0.705 ± 0.1, N 0.146 ± 0.18, L 0.205 ± 0.077
R35: G 0.022 ± 0.075, H 0.128 ± 0.13, T -0.016 ± 0.096, I -0.438 ± 0.17, D 0.168 ± 0.1, S -0.01 ± 0.083
G13: D -0.313 ± 0.093, F -0.522 ± 0.11, T -0.455 ± 0.099, P 0.152 ± 0.11, L -0.445 ± 0.09
D19: M -0.339 ± 0.15, R -0.775 ± 0.12, E -0.962 ± 0.15, K -0.898 ± 0.15, H -0.677 ± 0.28, T -0.865 ± 0.16
C26: M -0.876 ± 0.16, W -0.778 ± 0.15, R -0.602 ± 0.1, Y -0.851 ± 0.13, P -0.75 ± 0.16, T -0.959 ± 0.18, A -0.914 ± 0.15, D -0.76 ± 0.18
K38: S -0.011 ± 0.095, F -0.125 ± 0.16, C -0.363 ± 0.12, D -0.111 ± 0.16, M -0.136 ± 0.15, E -0.166 ± 0.12
N36: I -0.952 ± 0.33, K -0.63 ± 0.15, C -0.344 ± 0.11, S -0.523 ± 0.092, D 0.134 ± 0.11, P -0.62 ± 0.14, V -0.814 ± 0.12, F -0.694 ± 0.18, A -0.339 ± 0.09, L -0.651 ± 0.11, E 0.003 ± 0.091
C42: Q -0.955 ± 0.19, V -0.813 ± 0.11, H -0.809 ± 0.18, N -1 ± 0.18, D -0.849 ± 0.21, T -0.824 ± 0.14, E -0.604 ± 0.15, A -0.952 ± 0.14, P -0.709 ± 0.14
C8: A -0.786 ± 0.11, T -0.7 ± 0.13, W -0.863 ± 0.12, I -0.585 ± 0.14, E -0.506 ± 0.11, K -0.583 ± 0.13, G -0.457 ± 0.084, M -0.496 ± 0.12
G2: F -0.701 ± 0.38, D 0.186 ± 0.088, A -0.403 ± 0.12
R4: F -0.15 ± 0.15, P -0.01 ± 0.13, A -0.035 ± 0.1, L -0.06 ± 0.095, S -0.004 ± 0.1, V 0.103 ± 0.1, T 0.148 ± 0.14, H -0.279 ± 0.23
F32: K -0.39 ± 0.13, A -0.013 ± 0.092, P -0.257 ± 0.087, Q -0.09 ± 0.13, H -0.091 ± 0.078, S -0.185 ± 0.077, N -0.228 ± 0.09, C -0.286 ± 0.093, E 0.186 ± 0.17, L -0.327 ± 0.075, I -0.641 ± 0.099
L27: V -0.539 ± 0.097, N -0.518 ± 0.26, Y -0.334 ± 0.19, K -0.293 ± 0.13
Q15: A -0.112 ± 0.089, S -0.313 ± 0.085, V -0.25 ± 0.089, W -0.468 ± 0.11, Y -0.727 ± 0.15, N -0.392 ± 0.15, F -0.54 ± 0.13, G -0.384 ± 0.088, M 0.058 ± 0.11
G33: K -0.936 ± 0.16, F -1.04 ± 0.23, V -0.418 ± 0.085, R -0.783 ± 0.093, M -0.494 ± 0.11
K43: V 0.108 ± 0.085, Y 0.046 ± 0.13, W -0.12 ± 0.093, P -0.85 ± 0.13, H 0.37 ± 0.14
K46: P -0.341 ± 0.15, R -0.205 ± 0.09, S -0.12 ± 0.11, I 0.356 ± 0.19, G -0.145 ± 0.14, W -0.31 ± 0.14, F -0.21 ± 0.21, Y -0.128 ± 0.16
K29: M -0.408 ± 0.14, P -0.58 ± 0.22, V -0.51 ± 0.14, F -0.648 ± 0.32, L -0.671 ± 0.12, R -0.368 ± 0.11, D -0.411 ± 0.25, W -0.686 ± 0.2, N -0.55 ± 0.3, S -0.416 ± 0.13
M44: D -0.242 ± 0.13, H -0.181 ± 0.15, W -0.151 ± 0.095, Y -0.205 ± 0.16, K -0.037 ± 0.12, N -0.253 ± 0.21
I37: D 0.265 ± 0.11, P -0.554 ± 0.14, N 0.093 ± 0.17, S 0.037 ± 0.084, W -0.431 ± 0.099
C20: Q -0.866 ± 0.17, R -0.654 ± 0.11, S -0.832 ± 0.12, I -0.895 ± 0.23, M -0.925 ± 0.17, F -1.03 ± 0.2
Q40: L -0.177 ± 0.1, Y -0.493 ± 0.21, H -0.312 ± 0.18, F -0.089 ± 0.2, N -0.461 ± 0.27, P -0.512 ± 0.14
K39: D 0.101 ± 0.14, Q 0.042 ± 0.11, S 0.007 ± 0.093, H -0.11 ± 0.17
G9: H -0.39 ± 0.17, P -0.738 ± 0.15, R -0.55 ± 0.097
R45: D -0.411 ± 0.17, H -0.737 ± 0.21, W -0.662 ± 0.11, Q -0.52 ± 0.13
K1: E 0.47 ± 0.24, V -0.43 ± 0.31
K31: H -0.429 ± 0.093, S -0.404 ± 0.075, N -0.159 ± 0.096, A -0.195 ± 0.1, G -0.319 ± 0.12, F -0.627 ± 0.088, I -0.24 ± 0.084, W -0.685 ± 0.13, R -0.311 ± 0.09, M -0.444 ± 0.1
N25: W -0.107 ± 0.1, Y -0.148 ± 0.12, F -0.377 ± 0.14, G -0.342 ± 0.091, Q -0.481 ± 0.12, D -0.233 ± 0.15, S 0.024 ± 0.083, R -0.599 ± 0.084, V -0.02 ± 0.095
C14: S -0.49 ± 0.096, V -0.7 ± 0.12, A -0.738 ± 0.11, Q -0.183 ± 0.16, D -0.779 ± 0.17, F -0.913 ± 0.2, P -0.765 ± 0.16, M -0.713 ± 0.17
R3: E -0.038 ± 0.13, F 0.097 ± 0.17, A -0.123 ± 0.089, I -0.281 ± 0.17, W -0.518 ± 0.1, Y -0.301 ± 0.25, V 0.11 ± 0.089
C47: F -0.52 ± 0.16, P -0.789 ± 0.2, A -0.695 ± 0.42, W -0.527 ± 0.48, S -0.619 ± 0.13, D -0.347 ± 0.43
P12: R -0.398 ± 0.082, Q 0.016 ± 0.12, H -0.579 ± 0.17, I -0.31 ± 0.14, T -0.5 ± 0.14, L -0.106 ± 0.088, Y -0.063 ± 0.2
Q10: M -0.246 ± 0.11, D -0.589 ± 0.23, P -0.48 ± 0.11, A 0.031 ± 0.097, N -0.436 ± 0.18, C -0.459 ± 0.12, R -0.234 ± 0.088, V -0.296 ± 0.091, S -0.069 ± 0.09
P17: W -0.215 ± 0.094, V -0.057 ± 0.087, M -0.241 ± 0.13, D -0.615 ± 0.2, L -0.06 ± 0.091, T 0.161 ± 0.12
